Experimental data: patent publication US20230265151A1, “GIP/GLP1 CO-AGONIST COMPOUNDS” (priority 2020, published 2023)

T1: human glucose-dependent insulinotropic polypeptide (GIP) receptor (human, UniProt P48546 22-466)
T1 sequence (looked up): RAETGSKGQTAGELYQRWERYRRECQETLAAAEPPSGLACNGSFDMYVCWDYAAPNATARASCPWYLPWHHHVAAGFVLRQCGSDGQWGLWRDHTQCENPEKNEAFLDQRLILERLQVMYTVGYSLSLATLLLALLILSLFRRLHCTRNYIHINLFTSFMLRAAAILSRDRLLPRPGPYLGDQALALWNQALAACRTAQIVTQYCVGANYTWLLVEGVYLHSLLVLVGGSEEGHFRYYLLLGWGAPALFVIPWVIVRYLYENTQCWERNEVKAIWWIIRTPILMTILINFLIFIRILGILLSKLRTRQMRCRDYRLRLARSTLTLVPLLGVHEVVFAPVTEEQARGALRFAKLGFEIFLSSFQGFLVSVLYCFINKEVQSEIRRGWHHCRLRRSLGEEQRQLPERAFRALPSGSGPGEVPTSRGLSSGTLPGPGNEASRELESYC


Key:
Assay in all cases: cell-based or functional assay
[1] = target: T1, human glucose-dependent insulinotropic …
[2] = target: human glucagon-like peptide-1 (GLP-1) receptor (human, UniProt P43220 24-463)
human glucagon receptor = human glucagon receptor (human, UniProt P47871 26-477)

| Binder | cAMP EC50 [1] | cAMP EC50 [2] | cAMP EC50 (human glucagon receptor) | cAMP Emax [1] | cAMP Emax [2] |
| --- | --- | --- | --- | --- | --- |
| YXEGTXTSDXSIXLDXKAQXEFIXXLIEGGKSSGAPPPS (Aib2, αMeF6, 4Pal10, αMeL13, Orn16, K17(Z), Aib20, D-Glu24, αMeY25, K31(Z), C-terminal NH2; Z = AEEA2-(γ-Glu)-CO-(CH2)10-CH3) [Example 172] | 0.0149 nM | 0.141 nM | > 9950 nM | – | – |
| YXEGTXTSDXXIXLDXKAQXEFIXXLIEGGKSSGAPPPS (Aib2, αMeF(2F)6, 4Pal10, Dap11, αMeL13, Orn16, K17(Z), Aib20, D-Glu24, αMeY25, K31(Z), C-terminal NH2; Z = AEEA2-(γ-Glu)-CO-(CH2)12-CO2H) [Example 199] | 0.0587 nM | 3.2 nM | > 9950 nM | 96.9% | 96.7% |
| YXEGTXTSDXSIXLDXKAQXEXIXXLIEGGKSSGAPPPS (Aib2, αMeF6, 4Pal10, αMeL13, Orn16, K17(Z), Aib20, αMeF22, D-Glu24, αMeF25, K31(Z), C-terminal NH2; Z = AEEA2-(γ-Glu)-CO-(CH2)10-CH3) [Example 174] | 0.0284 nM | 0.33 nM | > 9950 nM | 92.2% | 98.2% |
| YXEGTXTSDXSIXLDXIAQXEFIKXLIEGGKSSGAPPPS (Aib2, αMeF(2F)6, 4Pal10, αMeL13, Orn16, Aib20, K24(Z), αMeY25, K31(Z), C-terminal NH2; Z = (εK)-(εK)-(γ-Glu)-CO-(CH2)12-CO2H) [Example 198] | 0.0269 nM | 0.362 nM | > 9950 nM | 94% | – |
| YXEGTXTSDXSIXLDXKAQXEFIXXLIEGGKSSGAPPPS (Aib2, αMeF(2F)6, 4Pal10, αMeL13, Orn16, K17(Z), Ac6c20, D-Glu24, αMeY25, K31(Z), C-terminal NH2; Z = AEEA2-(γ-Glu)-CO-(CH2)12-CO2H) [Example 171] | 0.0389 nM | 1.7 nM | > 9950 nM | – | – |
| YXEGTXTSDXSIXLDXKAQXEFIXXLIEGGKSSGAPPPS (Aib2, αMeF(2F)6, 4Pal10, αMeL13, Orn16, K17(Z), aMeF20, D-Glu24, αMeY25, K31(Z), C-terminal NH2; Z = AEEA2-(γ-Glu)-CO-(CH2)12-CO2H) [Example 169] | 0.0381 nM | 1.23 nM | > 9950 nM | – | – |
| YXEGTXTSDXSIXLDXIAQXKFIKXLIEGGPSSGAPPPS (Aib2, αMeF(2F)6, 4Pal10, αMeL13, Orn16, Aib20, K21(Z), K24(Z), αMeY25, C-terminal NH2; Z = AEEA2-CO-(CH2)12-CO2H) [Example 191] | 0.0601 nM | 0.926 nM | > 9950 nM | 90% | 98.6% |
| YXEGTXTSDVSIXLDXKAQXEFIXXLIEGGKSSGAPPPS (Aib2, αMeF6, αMeL13, Orn16, K17(Z), Aib20, D-Glu24, αMeY25, K31(Z), C-terminal NH2; Z = AEEA2-(γ-Glu)-CO-(CH2)12-CO2H) [Example 179] | 0.15 nM | 0.461 nM | > 9950 nM | 91% | 99% |
| YXEGTXTSDXSIXLDXIAQXEFIKXLIEGGKSSGAPPPS (Aib2, αMeF(2F)6, 4Pal10, αMeL13, Orn16, Aib20, K24(Z), αMeY25, K31(Z), C-terminal NH2; Z = AEEA2-CO-(CH2)12-CO2H) [Example 193] | 0.0201 nM | 0.382 nM | > 9950 nM | 97.2% | – |
| YXEGTXTSDXSIXLDXKAQXEXIXXLIEGGKSSGAPPPS (Aib2, αMeF6, 4Pal10, αMeL13, Orn16, K17(Z), Aib20, αMeF22, D-Glu24, αMeY25, K31(Z), C-terminal NH2; Z = AEEA2-(γ-Glu)-CO-(CH2)10-CH3) [Example 173] | 0.0155 nM | 0.343 nM | > 9950 nM | 87.8% | 89.9% |
| YXEGTXTSDXSIXLDXKAQXEFIKXLIEGGPSSGAPPPS (Aib2, αMeF(2F)6, 4Pal10, αMeL13, Orn16, K17(Z), Aib20, K24(Z), αMeY25, C-terminal NH2; Z = AEEA2-(εK)-CO-(CH2)12-CO2H) [Example 160] | 0.0197 nM | 0.228 nM | > 9950 nM | – | – |
| YXEGTXTSDVSIXLDXKAQXEFIKXLIEGGPSSGAPPPS (Aib2, αMeF6, αMeL13, Orn16, K17(Z), Aib20, K24(Z), αMeY25, C-terminal NH2; Z = AEEA2-(γ-Glu)-CO-(CH2)12-CO2H) [Example 181] | 0.154 nM | 0.182 nM | > 9950 nM | 94.6% | – |
| YXEGTXTSDXSIXLDXIAQXEFIKXLIEGGKSSGAPPPS (Aib2, αMeF(2F)6, 4Pal10, αMeL13, Orn16, Aib20, K24(Z), αMeY25, K31(Z), C-terminal NH2; Z = (εK)-(γ-Glu)-CO-(CH2)12-CO2H) [Example 197] | 0.0338 nM | 0.336 nM | > 9950 nM | 102% | – |
| YXEGTXTSDXSIXLDXKAQXEFIKXLIEGGPSSGAPPPS (Aib2, aMeF(2F)6, 4Pal10, aMeL13, Orn16, K17(Z), Aib20, K24(Z), αMeY25, C-terminal NH2; Z = eK-gE-C14_OH (so in the source)) [Example 161] | 0.0207 nM | 0.203 nM | > 9950 nM | – | – |
